Literature values as cited in patent publication US20120107229A1, “NOVEL NANO-PROBES FOR MOLECULAR IMAGING AND TARGETED THERAPY OF DISEASES” (priority 2009, published 2012).

Target: T1, CD44 (Homo sapiens, UniProt P16070)
T1 construct: host or cells: melanoma cells (collagen fragment only)
T1 sequence (P16070 21-742, species assumed): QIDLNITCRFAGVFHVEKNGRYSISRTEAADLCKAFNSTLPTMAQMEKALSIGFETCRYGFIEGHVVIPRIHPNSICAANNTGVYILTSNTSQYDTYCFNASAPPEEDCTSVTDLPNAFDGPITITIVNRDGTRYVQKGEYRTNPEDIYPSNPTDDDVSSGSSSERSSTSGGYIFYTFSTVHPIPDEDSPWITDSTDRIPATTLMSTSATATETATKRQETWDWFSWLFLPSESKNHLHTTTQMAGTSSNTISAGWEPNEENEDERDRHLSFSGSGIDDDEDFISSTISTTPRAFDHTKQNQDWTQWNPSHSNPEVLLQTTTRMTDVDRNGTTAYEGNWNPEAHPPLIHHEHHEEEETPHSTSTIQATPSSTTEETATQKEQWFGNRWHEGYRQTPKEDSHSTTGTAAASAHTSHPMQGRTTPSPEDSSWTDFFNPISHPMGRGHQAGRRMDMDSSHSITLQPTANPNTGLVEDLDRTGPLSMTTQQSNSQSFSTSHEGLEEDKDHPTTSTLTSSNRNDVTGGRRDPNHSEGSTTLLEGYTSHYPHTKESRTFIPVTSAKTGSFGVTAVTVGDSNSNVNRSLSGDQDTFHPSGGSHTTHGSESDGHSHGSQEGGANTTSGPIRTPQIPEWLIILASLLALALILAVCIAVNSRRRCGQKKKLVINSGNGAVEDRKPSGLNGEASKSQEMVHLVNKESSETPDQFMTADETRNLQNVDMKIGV

Row | Sequence | share of the binding of CD44 to intact fibronectin (fibronectin digestion and fractionation studies) [%] | binding to CD44 on cells (melanoma cells)
1 | KNNQKSEPLIGRKKT | 65.5 | 
2 | GVKGDKGNPGWPGAP |  | found to bind with CD44 on melanoma cells
